According to patent US12649925B2, “Tissue-specific expression and hybrid plant production” (Dow AgroSciences LLC, priority 2013, dated 2026):

How the values were obtained:
[1] = test system: Maize Immature Embryos; assay: Selection of Agrobacterium-transformed immature embryos on herbicide-containing medium; format: cell-based, Zea mays; settings: Selection Medium I containing 100 nM R-Haloxyfop acid
Source text: Agrobacterium-mediated transformation was used to stably integrate a chimeric gene into the plant genome, and thus generate transgenic maize cells, tissues, and plants that produce AAD1 mRNAs having miRNA target sites within the mRNA. Control tissues having no miRNA target sites in the AAD1 mRNA were also produced. Transformed tissues were selected by their ability to grow on Haloxyfop-or Bialaphos-containing medium.
Callus Selection and Regeneration of Transgenic Events: Following the co-cultivation period, embryos were transferred to Resting Medium (4.33 g/L MS salts; 1× ISU Modified MS Vitamins; 30 g/L sucrose; 700 mg/L L-proline; 3.3 mg/L Dicamba in KOH; 100 mg/L myo-inositol; 100 mg/L Casein Enzymatic Hydrolysate; 15 mg/L AgNO3; 0.5 g/L MES (2-(N-morpholino) ethanesulfonic acid monohydrate; PHYTOTECHNOLOGIES LABR.; Lenexa, K S); 250 mg/L Cefotaxime; and 7.0 gm/L agar; at pH 5.8). No more than 36 embryos were moved to each plate. The plates were wrapped with Micropore™ tape and incubated at 27° C. with continuous light at approximately 50 μmol m^−2s^−1 light intensity for 7 to 10 days. […]

[2] = test system: Maize Immature Embryos; assay: Transient AAD1 expression in immature embryos after particle bombardment, ELISA; format: cell-based, Zea mays; settings: 24 hours after particle bombardment; co-bombardment plasmid pDAB112378 (artificial miRNA)
Source text: Zea mays embryos from inbred line B104 that express AAD1 mRNAs having miRNA target sites within the mRNA were produced. Control tissues having no miRNA target sites in the AAD1 mRNA, or having no AAD1 gene expression cassette, were also produced. Other control tissues were produced that had only a YFP gene expression cassette (and no AAD1 construct). Preparations of plant transformation DNA molecules constructed as described in EXAMPLE 2 were delivered into maize B104 immature embryos via particle bombardment transformation.
Plasmid DNAs of pDAB112375, pDAB112376, pDAB112377, pDAB113016, pDAB100286, pDAB112378 and pDAB112330 were isolated and purified from Escherichia coli by standard techniques, and diluted in TE buffer (10 mM Tris HCl plus 1 mM EDTA, pH 8) to 1.0 μg/μL.
Embryo isolation and culture: (Day 1) Surface-sterilized B104 immature ears (10 to 12 days post-pollination) were used for the isolation of embryos. Excised immature embryos from 3 to 4 ears were pooled into 2 mL microfuge tubes containing 2.0 mL liquid medium (LS basal medium (Linsmaier and Skoog, (1965) Physiologia Plantarum 18:100-27) containing CHU N6 vitamins (Chu et al. (1975) Scientia Sinica 18:659-68), 700 mg/L L-Proline, 68.5 gm/L sucrose, 36 gm/L D(+) glucose, and 1.5 mg/L 2,4-D). After embryo isolation, the liquid medium was removed and discarded. Embryos were removed and placed onto plates (40 embryos per plate) containing a semi-solid osmotic medium (MS basal medium (Murashige and Skoog, (1962) Physiologia Plantarum 15:473-497), 2 mg/L Glycine, 500 μg/L Thiamine, 500 μg/L Pyroxidine, 50 μg/L Nicotinic Acid., 120 gm/L sucrose, 100 mg/L myo-inositol, and 2.4 gm/L GELRITE). The embryos were arranged in a […] within the target area for particle bombardment. Three replicate plates were prepared for each construct to be tested. All plates were incubated at 28° C. under continuous low light (50 μEm^−2 sec^−1) for 24 hours prior to particle bombardment.
Coating gold particles with DNA: (Day 2) Tubes of frozen gold particles glycerol stock were thawed on ice for a few minutes, then vortexed for 2 minutes at high speed until a uniform gold suspension was produced. Gold suspension was pipetted into sterile microcentrifuge tubes (50 μL each), with an intermediate vortexing of the particle stock between each tube to maintain a uniform suspension. 2.5 μg each of appropriate plasmid DNAs were included. […]
ELISA quantification of AAD1 and PAT proteins: Enzyme Linked Immunosorbant Assays (ELISAs) were used to measure the production of AAD1 and PAT proteins in maize cells and stably-transformed tissues. […]

| Molecule | fate of transformed embryos on Haloxyfop-containing medium [1] | Mean AAD1 Amount [2] |
| --- | --- | --- |
| pDAB112377: Transient construct: ZmUbilv2/AAD1 v3/miR529 perfect target site with miR156 site mutated/ZmPer5 3′UTR (SEQ ID NO:10) (nucleic acid, expression cassette; (969)..(1333) ZmPer5 3′UTR) DNA: ATGGCTCATGCTGCCCTCAGCCCTCTCTCCCAACGCTTTGAGAGAATAGCTGTCCAGCCACTCACTGGTGTCCTTGGTGCTGAGATCACTGGAGTGGACTTGAGGGAACCACTTGATGACAGCACCTGGAATGAGATATTGGATGCCTTCCACACTTACCAAGTCATCTACTTTCCTGGCCAAGCAATCACCAATGAGCAGCACATTGCATTCTCAAGAAGGTTTGGACCAGTTGATCCAGTGCCTCTTCTCAAGAGCATTGAAGGCTATCCAGAGGTTCAGATGATCCGCAGAGAAGCCAATGAGTCTGGAAGGGTGATTGGTGATGACTGGCACACAGACTCCACTTTCCTTGATGCACCTCCAGCTGCTGTTGTGATGAGGGCCATAGATGTTCCTGAGCATGGCGGAGACACTGGGTTCCTTTCAATGTACACAGCTTGGGAGACCTTGTCTCCAACCATGCAAGCCACCATCGAAGGGCTCAACGTTGTGCACTCTGCCACACGTGTGTTCGGTTCCCTCTACCAAGCACAGAACCGTCGCTTCAGCAACACCTCAGTCAAGGTGATGGATGTTGATGCTGGTGACAGAGAGACAGTCCATCCCTTGGTTGTGACTCATCCTGGCTCTGGAAGGAAAGGCCTTTATGTGAATCAAGTCTACTGTCAGAGAATTGAGGGCATGACAGATGCAGAATCAAAGCCATTGCTTCAGTTCCTCTATGAGCATGCCACCAGATTTGACTTCACTTGCCGTGTGAGGTGGAAGAAAGACCAAGTCCTTGTCTGGGACAACTTGTGCACCATGCACCGTGCTGTTCCTGACTATGCTGGCAAGTTCAGATACTTGACTCGCACCACAGTTGGTGGAGTTAGGCCTGCCCGCTGAGTAGTTAGCTTAATCACCTAGAGCTCGACTCAGGCTGTACTCTCTCTCTTCACAAAGTACTCAGGTAACCTTTAAACTGAGGGCACTGAAGTCGCTTGATGTGCTGAATTGTTTGTGATGTTGGTGGCGTATTTTGTTTAAATAAGTAAGCATGGCTGTGATTTTATCATATGATCGATCTTTGGGGTTTTATTTAACACATTGTAAAATGTGTATCTATTAATAACTCAATGTATAAGATGTGTTCATTCTTCGGTTGCCATAGATCTGCTTATTTGACCTGTGATGTTTTGACTCCAAAAACCAAAATCACAACTCAATAAACTCATGGAATATGTCCACCTGTTTCTTGAAGAGTTCATCTACCATTCCAGTTGGCATTTATCAGTGTTGCAGCGGCGCTGTGCTTTGTAACATAACAATTGTTACGGCATATATCCAA | grew on Haloxyfop-containing medium and regenerated transgenic plants | 249 ng/mL |
| pDAB112376: Transient construct: ZmUbilv2/AAD1 v3/WT miR529 target site with miR156 site mutated/ZmPer5 3′UTR (SEQ ID NO:9) (nucleic acid, pDAB112377 expression cassette; (918)..(954) modified tsh4 target site; (969)..(1333) ZmPer5 3′UTR) DNA: ATGGCTCATGCTGCCCTCAGCCCTCTCTCCCAACGCTTTGAGAGAATAGCTGTCCAGCCACTCACTGGTGTCCTTGGTGCTGAGATCACTGGAGTGGACTTGAGGGAACCACTTGATGACAGCACCTGGAATGAGATATTGGATGCCTTCCACACTTACCAAGTCATCTACTTTCCTGGCCAAGCAATCACCAATGAGCAGCACATTGCATTCTCAAGAAGGTTTGGACCAGTTGATCCAGTGCCTCTTCTCAAGAGCATTGAAGGCTATCCAGAGGTTCAGATGATCCGCAGAGAAGCCAATGAGTCTGGAAGGGTGATTGGTGATGACTGGCACACAGACTCCACTTTCCTTGATGCACCTCCAGCTGCTGTTGTGATGAGGGCCATAGATGTTCCTGAGCATGGCGGAGACACTGGGTTCCTTTCAATGTACACAGCTTGGGAGACCTTGTCTCCAACCATGCAAGCCACCATCGAAGGGCTCAACGTTGTGCACTCTGCCACACGTGTGTTCGGTTCCCTCTACCAAGCACAGAACCGTCGCTTCAGCAACACCTCAGTCAAGGTGATGGATGTTGATGCTGGTGACAGAGAGACAGTCCATCCCTTGGTTGTGACTCATCCTGGCTCTGGAAGGAAAGGCCTTTATGTGAATCAAGTCTACTGTCAGAGAATTGAGGGCATGACAGATGCAGAATCAAAGCCATTGCTTCAGTTCCTCTATGAGCATGCCACCAGATTTGACTTCACTTGCCGTGTGAGGTGGAAGAAAGACCAAGTCCTTGTCTGGGACAACTTGTGCACCATGCACCGTGCTGTTCCTGACTATGCTGGCAAGTTCAGATACTTGACTCGCACCACAGTTGGTGGAGTTAGGCCTGCCCGCTGAGTAGTTAGCTTAATCACCTAGAGCTCGACTCAGGCTGTACTCTCTTACTTCACAAAGTACTCAGGTAACCTTTAAACTGAGGGCACTGAAGTCGCTTGATGTGCTGAATTGTTTGTGATGTTGGTGGCGTATTTTGTTTAAATAAGTAAGCATGGCTGTGATTTTATCATATGATCGATCTTTGGGGTTTTATTTAACACATTGTAAAATGTGTATCTATTAATAACTCAATGTATAAGATGTGTTCATTCTTCGGTTGCCATAGATCTGCTTATTTGACCTGTGATGTTTTGACTCCAAAAACCAAAATCACAACTCAATAAACTCATGGAATATGTCCACCTGTTTCTTGAAGAGTTCATCTACCATTCCAGTTGGCATTTATCAGTGTTGCAGCGGCGCTGTGCTTTGTAACATAACAATTGTTACGGCATATATCCAA | grew on Haloxyfop-containing medium and regenerated transgenic plants | 317 ng/mL |
